Test results: patent publication US20140141037A1

Target: RSV F uncleavable ectodomain (Delp21Furx, the ectodomain polypeptide) (respiratory syncytial virus)
Test: Size exclusion chromatography of the mixture of RSV F monomer and HRA peptide; monomer alone ~75 mls, reference trimer (FP deletion) ~65 mls

LEGEVNKIKSALLSTNKAVVSLSNGVSVLTSKVLDLKNYIDKQLLPIV [RSV F HRA peptide, RSV residues 160-207] was tested, and the Retention Volume Superdex P200 was 60 mL.
